One substance from publication PMC7274780 can be followed below.

The assay deals with Salmonella typhimurium oxaloacetate decarboxylase sodium pump (StOAD) β subunit (Salmonella typhimurium) (UniProt Q03031). Kind of assay: cryo-EM structure; purified StOAD βγ sub-complex in 20 mM Tris pH 7.5, 100 mM sodium chloride, 2 mM DTT, 0.02% DDM; C3 symmetry imposed; 3.88 Å.

For the substance “Salmonella typhimurium oxaloacetate decarboxylase sodium pump (StOAD) β subunit (from UniProt Q03031 1-433) (natural protein)”, the stoichiometry N was determined as 3.

In general, stoichiometry N refers to a count of units in the complex or per binding partner.
